Assay results as given in patent US20200325490A1 (AARHUS UNIVERSITET, published 2020).

Target: the molecule itself
Experiment: Western blot with anti-His6 antibody: band of about 92 kDa against a theoretical mass of 47 kDa

B1: HvNEP-1 (Hordeum vulgare nepenthesin-1-type aspartic endoprotease), ΔHvNEP-1 with C-terminal His6 tag, expressed in Pichia pastoris KM71H (enzyme)
chain: DADTPKVAMASSGAGSSFRLAAHHDHALSRSDDGFLHVQSRLDNLLPSEANVTTLRPPVASPLDMAFSVVVGLGSGKGRHDYNLKLDASGSLTWVQCKPCNPKQPQRGPLFDPKASSTFQQVAGTSQICHPPYPMEPAGQQCAFHLSGMGGMSVHGYVAMENLTMGPEAMKEFVFGCSHSTGHFNSHGTFAGVAAMGKMPTSLVMQVAARGQTRFSYCLFSGGASRHGFLRFGADVPSRSGLRTTKILPALDAHESQYYVSLVGISLDAKRLTGVRPEMFARQRGGEGGCVVDPGTPLTVLVREAYRVVEDAVWSDLRRNKAERVQREGYGLCVRKTAEIKRHLQSLSLHFAEETARLVVKPEQLFVAVESRLHGAALCLAMRPGERTVIGALQQVDTRFVYDLKDAKLSFASEPCSQDTAGVDHHHHHH
notes: also called HvNEP-1 protease; truncated HvNEP-1
binding result: binds
